Experimental data taken from publication PMC6628828.

Legend:
[1] = target: glutathione transferase P1-1 C47S mutant (human); test: ESI-MS
[2] = target: glutathione transferase P1-1 C47S mutant (human); test: cross-linking
[3] = target: glutathione transferase P1-1 C101S mutant (human); test: ESI-MS
[4] = target: glutathione transferase P1-1 C101S mutant (human); test: cross-linking

Row | relative abundance of peak C (C47S dimer) [1] [%] | relative abundance of peak E (C47S dimer + 2×[Pt(NH3)]) [2] [%] | relative abundance of peak F (C47S dimer + 2×[PtCl2] + [Pt(NH3)2]) [2] [%] | relative abundance of peak C (C101S dimer) [3] [%] | relative abundance of peak L (C101S dimer + 2×MeOH) [4] [%] | Substance
1 | 5 | 54 | 24 |  |  | glutathione transferase P1-1 C47S mutant (enzyme)
2 |  |  |  | 5 | 18 | glutathione transferase P1-1 C101S mutant (enzyme)
